Assay results: patent publication US20250186503A1, “METHODS AND COMBINATIONS FOR TREATMENT AND T CELL MODULATION” (Juno Therapeutics, Inc., priority 2018, published 2025)

System: anti-BCMA CARs
Assay: Binding of BCMA-Fc fusion protein to CAR-expressing T cells (flow cytometry)
Description: The clone encoding the human BCMA-Fc fusion construct with the N-terminal CD33 leader sequence (SEQ ID NO: 21) was inserted into an expression vector and expressed in HEK 293 cells. The resulting BCMA-Fc fusion protein was determined to have a purity of greater than 95% as assessed by gel permeation chromatography.

B1: BCMA-Fc fusion protein: extracellular domain of human BCMA and a human IgG1 Fc connected with a linker (SEQ ID NO: 22) (protein)
chain: MPLLLLLPLLWAGALAMLQMAGQCSQNEYFDSLLHACIPCQLRCSSNTPPLTCQRYCNASVTNSVKGTNAGGGGSPKSSDKTHTCPPCPAPEAEGAPSVFLFPPKPKDTLMISRTPEVTCVVVDVSHEDPEVKFNWYVDGVEVHNAKTKPREEQYNSTYRVVSVLTVLHQDWLNGKEYKCKVSNKALPSSIEKTISKAKGQPREPQVYTLPPSRDELTKNQVSLTCLVKGFYPSDIAVEWESNGQPENNYKTTPPVLDSDGSFFLYSKLTVDKSRWQQGNVFSCSVMHEALHNHYTQKSLSLSPGK
modifications: BCMA-Fc construct
- binding to anti-BCMA CAR expressing T cells: specifically bound
